Entries after “also recorded” stand apart in the source; their conditions may differ. Where two headings read alike, the source gives them in different places.

We go through one molecule from patent US12241094B2, “Phenazine degrading agents and related compositions, methods and systems for interfering with viability of bacteria” (priority 2016, dated 2025).

The subject of one series is Pa PA14 biofilm. Nature of the series: Biofilm biomass by DAPI intensity (Example 7). The format is cell-based, P. aeruginosa. The protocol: In this example, to check for an effect of PodA or 1-OH-PHZ on biofilm development, Pa PA14 was grown in 8-well chambered microscope slides designed for biofilm imaging, as previously reported (Das et al. (2015) Sci Rep. 5:8398). Overnight cultures of Pa PA14 were diluted to a starting optical density of 0.25 and grown directly on the slides (volume of 250 μl per chamber). After 5 h incubation at 37° C., planktonic cells were rinsed from the slide and remaining cells were stained with DAPI. Biofilm biomass was quantified by DAPI intensity on a Leica confocal microscope, with LAS X software. Pa PA14 incubated in the presence of 1 μM PodA or 100 μM 1-OHPHZox had ˜50% the biofilm biomass of Pa PA14 alone (FIG. 20A).

Another series has as its system P. aeruginosa biofilm. Nature of the series: Optical density of P. aeruginosa biofilm. It counts as cell-based. Conditions: PodA vs inactive E154A; 1-OH-PHZ vs 1% DMSO.
The nature of series [1]: PYO demethylation by purified PodA30-162 and mutants (spectrophotometric/HPLC). It counts as biochemical. As to the method: Enzyme activity and analysis. PYO demethylation by PodA30-162 was first determined by HPLC analysis as described previously (6, 9). To detect formaldehyde evolution, 150 nM protein was mixed with 50 μM PYO in 1 mL of 20 mM Tris pH 7.6 amended with 200 μL Nash reagent (2 M ammonium acetate, 50 mM acetic acid, 20 mM acetylacetone) and incubated at 55° C. until the reaction proceeded to completion (37, 38). The products were determined by HPLC using the same method as used for phenazine quantification. To monitor the formation of reduced phenazine, protein and 50 μM PYO were placed into an anaerobic chamber (Coy Laboratory Products) under an atmosphere of H2/N2 (5:95) and left overnight before allowing the reaction to proceed. To generate reduced PYO and 1-OH-PHZ, 50 μM were mixed with 1 mM sodium dithionite. The formation of reduced phenazine products was assayed visually under UV illumination (39). A BioTek Synergy 4 microplate reader (BioTek) plate reader in the anaerobic chamber was used to measure the emission spectrum of products with excitation at 250 nm. To determine the activity of PodA30-162 in the presence of glycerol, salts, or varying pH, 30 nM protein was suspended in 500 μL buffer, 40 μM PYO was mixed with 2× solution containing the buffer of interest (500 μL), and solutions were preheated to 30 C. For pH range measurements, the following buffers were used (40 mM, adjusted with KOH): acetic acid, pH 4.9; MES, pH 5.4 and 5.7; HEPES, pH 6.1; Tris, pH 6.9 and 7.5; Bicine, pH 7.8, 8.3 and 8.7; CHES, pH 9.4. To measure reaction rates, cuvettes containing the 2×PYO solution were placed in a Evolution 260Bio UV-Vis spectrophotometer (Thermo Scientific) and 500 μL of 30 nM protein was added at time 0 (15 nM protein and 20 μM PYO, final concentration). Reaction progress was monitored by measuring absorbance at 313 nm (40) every 0.5 seconds for 5 minutes. To measure kinetic parameters (kcat, Km) 15 nM protein was used in a reaction buffer of Bicine, pH 7.8; reactions were monitored as before with measurements every 0.2 seconds. The rate from the first 10 seconds of the reaction was used for the determination of kinetic parameters. Kinetic parameters were calculated in Microsoft Excel using the Solver plug-in and fitting data to ideal Michaelis-Menton plots with non-linear regression of experimental data (41). For measurements of the rate of methoxy-PMS demethylation, 300 nM protein was used and methoxy-PMS loss from the reaction mixture was monitored at 500 nm wavelength. Methoxy-PMS was purchased from TCI America. For assays with mutant proteins, 60 nM protein was used. The stimulatory effects of flavin or 2-oxoglutarate addition was determined by adding 25 μM flavin or 2-oxoglutarate to 20 μM PYO and 15 nM PodA30-162 and monitoring the reaction. Experiments testing alternative substrates were carried out using 1 mL reaction volumes containing 20 mM Tris (pH 7.6) and 50 μg mL^−1 PodA30-162. Alternative substrates tested were 10-methylphenothiazine (AlfaAesar), phenazine methosulfate (AlfaAesar), methoxyphenazine methosulfate (TCI America), and 4-keto-N-ethylphenazine. 4-keto-N-ethylphenazine was synthesized from phenazine ethosulfate (Sigma-Aldrich) by incubating under fluorescent light overnight followed by purification by HPLC as described (6, 42). As phenazine methosulfate is light sensitive and spontaneously converts to PYO in the presence of light, all reactions were carried out in the dark, and activity was assessed by end point analysis by HPLC after 4 hours (9).

Series [2] relates to Pa PA14 biofilm transcriptome. Kind of series: RNASeq transcriptome of biofilm cultures. The following applies: 5 h. It counts as cell-based, P. aeruginosa. The protocol:
Because 1-OH-PHZ induces iron starvation in A. fumigatus (Briard et al. (2015) Scientific Reports. 2015; 5), it was speculated that the abrogation of biofilm development in P. aeruginosa grown in the presence of either PodA or 1-OH-PHZox may be mediated by a response to Fe-limitation. To test this idea, changes to the transcriptome of Pa PA14 by RNASeq were assessed. After 5 h of incubation in the presence of PodA (1 μM), 1-OH-PHZ (200 μM) or PYO (200 μM), RNA was prepared from 1 ml of biofilm cultures (250 μl pooled from 4 static biofilm chambers) for analysis on an Illumina HiSeq 2500 sequencer at the Millard and Muriel Jacobs Genetics and Genomics Laboratory, as previously described (Babin et al. (2016) Proc Natl Acad Sci USA. 113(5):E597-E605; Kreamer et al. (2015) M Bio. 2015; 6(2):e02549. Epub 2015/02/26). This experiment was designed to identify genes that were likely to be specifically affected by PodA's transformation of PYO to 1-OH-PHZ under a condition that inhibited biofilm formation (FIG. 20A). As a reference for genes responsive to iron availability, these transcriptomes were compared to those previously found to respond to Fe(II) shock (Kreamer et al. (2015) M Bio. 2015; 6(2):e02549. Epub 2015/02/26).

B1: PodA30-162: truncated pyocyanin demethylase encoded by MFORT_14352 of Mycobacterium fortuitum lacking N-terminal helix, SEQ ID NO: 2 (protein, listed as Mycobacterium fortuitum)
chain: MDGRGGRSTTEPVTMTLDVKNDQVAKHDFGKPGMDVGDMDIFSDILSVDGKQVGYDGGACFFTNVTPDNPMTYCELTIHLDAGEIFARSLTPHTLAPFTMAITGGTGEYANSKGELTVSGVATPDEKYELKLTKAENLYFQ
As for B1, in the series with Pa PA14 biofilm (1 μM PodA or 100 μM 1-OHPHZox, 5 h at 37° C), the “biofilm biomass relative to Pa PA14 alone” value is roughly 50%. The “biofilm formation compared to untreated control” value in the series on Pa PA14 biofilm (PodA 1 μM, 1-OH-PHZ 100 μM, total DAPI staining) is “inhibit biofilm formation”. The “optical density of biofilm” value in the series with P. aeruginosa biofilm is given as “significantly decreased”. In addition, in series [1] (20 μM PYO, 15 nM PodA30-162), the “activity in presence of glycerol or KCl or NaCl salts” value is given as “minimally inhibited”. In addition, the “pH regime over which enzyme operates” value in series [1] (20 μM PYO, 15 nM PodA30-162) is 4.9-8.7 pH. The “pH above which activity is lost” value in series [1] (20 μM PYO, 15 nM PodA30-162, 5 minutes) is given as greater than 9 pH. Also, in series [1] (25 μM, 15 nM PodA30-162), the “activity in presence of flavins (FMN, FAD) or 2-oxoglutarate” value is recorded as “not stimulated”. The “activity under anoxic conditions” value in series [1] (50 μM PYO, anaerobic chamber) was “functions under anoxic conditions; also recorded: active”. Moreover, the “salt concentrations over which enzyme operates” value in series [1] (KCl or NaCl) was 0 to 400 mM. Further, in series [1] (PYO substrate, 15 nM protein, Bicine pH 7.8), the catalytic constant (kcat) was 1.20 ± 0.07 s⁻¹. Further, the Km was less than 1 µM in series [1] (PYO substrate, 15 nM protein, Bicine pH 7.8, read-out: Km) and less than 1 µM in series [1] (best fit to Michaelis-Menton plot, 15 nM PodA30-162, PYO detection limit 0.5 μM, read-out: apparent Km). Moreover, in series [2], the “expression of small gene cluster incl. QapR regulon” value is “upregulated modestly”. For the same molecule, the “log(2) changes relative to untreated control, metal scavenging and starvation response genes (FIG. 21A)” value in series [2] (PodA 1 μM, 1-OH-PHZ 200 μM, PYO 200 μM) is ~0 log(2).

The kcat is the maximal rate divided by the concentration of active sites. The term Km denotes the substrate concentration at which the rate is half of its maximum.
